Data from patent US20260242485A1 (LEPU BIOPHARMA, published 2026).

B1: P2C47-hIgG1 LALAPG (antibody)
heavy: QVQLVQSGAEVKKPGESLKVSCKASGYTFTSYYMHWVRQAPGQGLEWMGAIEPMYGSTSYAQKFQGRVTMTRDTSTSTVYMELSSLRSEDTAVYYCARGSAYYYDFADYWGQGTLVTVSSASTKGPSVFPLAPSSKSTSGGTAALGCLVKDYFPEPVTVSWNSGALTSGVHTFPAVLQSSGLYSLSSVVTVPSSSLGTQTYICNVNHKPSNTKVDKKVEPKSCDKTHTCPPCPAPEAAGGPSVFLFPPKPKDTLMISRTPEVTCVVVDVSHEDPEVKFNWYVDGVEVHNAKTKPREEQYNSTYRVVSVLTVLHQDWLNGKEYKCKVSNKALGAPIEKTISKAKGQPREPQVYTLPPSREEMTKNQVSLTCLVKGFYPSDIAVEWESNGQPENNYKTTPPVLDSDGSFFLYSKLTVDKSRWQQGNVFSCSVMHEALHNHYTQKSLSLSPGK
light: SYVLTQPSSVSVAPGQTATISCGGHNIGSKNVHWYQQRPGQSPVLVIYQDNKRPSGIPERFSGSNSGNTATLTISGTQAMDEADYYCQVWDNYSVLFGGGTKLTVLGQPKANPTVTLFPPSSEELQANKATLVCLISDFYPGAVTVAWKADGSPVKAGVETTKPSKQSNNKYAASSYLSLTPEQWKSHRSYSCQVTHEGSTVEKTVAPTECS
notes: also called benchmark antibody P2C47
B2: 45H6E8-hIgG1 LALAPG (antibody)
heavy: EVQLQQSGAELVRSGASVKLSCTASGFNIKDYYMQWVKQRPEQGLEWIGWIDPENGDTEYAPKFQGKATMTADTSSNTAYLQLSSLTSEDTAVYYCTTGGNYVDWGQGTTLTVSSASTKGPSVFPLAPSSKSTSGGTAALGCLVKDYFPEPVTVSWNSGALTSGVHTFPAVLQSSGLYSLSSVVTVPSSSLGTQTYICNVNHKPSNTKVDKKVEPKSCDKTHTCPPCPAPEAAGGPSVFLFPPKPKDTLMISRTPEVTCVVVDVSHEDPEVKFNWYVDGVEVHNAKTKPREEQYNSTYRVVSVLTVLHQDWLNGKEYKCKVSNKALGAPIEKTISKAKGQPREPQVYTLPPSREEMTKNQVSLTCLVKGFYPSDIAVEWESNGQPENNYKTTPPVLDSDGSFFLYSKLTVDKSRWQQGNVFSCSVMHEALHNHYTQKSLSLSPGK
light: DIVMTQSQKFMSTSVGDRVSITCKASQNVGTAVAWYQQKPGQSPKLLIYSASNRYTGVPDRFTGSGSGTDFTLTISNMQSEDLADYFCQQYSSYPLLTFGAGTNLELKRTVAAPSVFIFPPSDEQLKSGTASVVCLLNNFYPREAKVQWKVDNALQSGNSQESVTEQDSKDSTYSLSSTLTLSKADYEKHKVYACEVTHQGLSSPVTKSFNRGEC
notes: also called 45H6E8 chimeric antibody

Legend:
[1] = molecular target: T1, Recombinant cyno CD16 ECD his tag protein (cynomolgus, UniProt Q8SPW2 17-208); assay: ELISA, plate-coated his-tagged antigen 2 ug/mL
T1 construct: extracellular domain; Bought protein; also called cynoCD16-his; cynomolgus CD16-his
T1 sequence (Q8SPW2 17-208): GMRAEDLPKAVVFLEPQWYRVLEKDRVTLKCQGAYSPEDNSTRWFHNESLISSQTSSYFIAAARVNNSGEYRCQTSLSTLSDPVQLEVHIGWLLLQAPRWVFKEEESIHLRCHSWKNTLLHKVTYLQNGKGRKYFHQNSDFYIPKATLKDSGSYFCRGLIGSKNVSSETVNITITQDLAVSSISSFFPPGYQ
Procedure: (§1) In order to determine the binding ability of the chimeric Abs to human CD16A protein, ELISA-based binding assay was performed as followed. […] The mixture was incubated for 1 hour at room temperature (RT). The primary antibody was recognized by a detective antibody against human IgG Fc which was conjugated with horseradish peroxidase (HRP) (Jackson Immuno, Cat. No. 109-035-008). Tetramethylbenzidine (TMB), a substrate of HRP, was added to the wells to visualize the binding signal. After sufficient color development, stop solution was added to the wells. The absorbance of the signal was detected at 450 nm with Envision multilabel plate readers (PerkinElemer). The graph and statistics analysis were generated with four-parameter nonlinear regression curve fit in Graphpad Prism 9 software.
(§2) In order to determine the cross reactivity of the chimeric Abs to cynomolgus CD16, ELISA binding assay was performed as described above. Recombinant cyno CD16 ECD his tag protein (cynoCD16-his, Acro Bio, Cat. No. FC6-C52H9) was used as the coating antigen at 2 μg/mL.

hCD16A-158V-his protein = molecular target: T2, hCD16A-158V-his protein (human, UniProt P08637 17-208); assay: ELISA, plate-coated his-tagged antigen 2 ug/mL
T2 construct: extracellular domain; Bought protein; also called human CD16A-158V-his; Human CD16A-158V (protein)
T2 sequence (P08637 17-208 F176V): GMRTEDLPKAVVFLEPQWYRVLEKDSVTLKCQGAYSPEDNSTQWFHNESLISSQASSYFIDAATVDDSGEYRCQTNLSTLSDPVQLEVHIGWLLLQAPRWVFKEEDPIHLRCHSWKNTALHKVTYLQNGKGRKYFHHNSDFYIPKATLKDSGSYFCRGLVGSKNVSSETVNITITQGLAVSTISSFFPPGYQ
Procedure: as §1, §2

hCD16A-158F-his protein = molecular target: T3, hCD16A-158F-his protein (human, UniProt P08637 17-208); assay: ELISA, plate-coated his-tagged antigen 2 ug/mL
T3 construct: Bought protein
T3 sequence (P08637 17-208 limits assumed): as the sequence (P08637 17-208 F176V) above, with V160F counted along it
Procedure: as §1, §2

[2] = molecular target: T4, human CD16A-158V expressed on CHO-K1 cells (human, UniProt P08637 17-254); assay: flow cytometry on antigen-expressing CHO-K1 cells
T4 construct: whole, on cells; also called hCD16A-158V; CHO-K1-hCD16A-158V
T4 sequence (P08637 17-254 F176V): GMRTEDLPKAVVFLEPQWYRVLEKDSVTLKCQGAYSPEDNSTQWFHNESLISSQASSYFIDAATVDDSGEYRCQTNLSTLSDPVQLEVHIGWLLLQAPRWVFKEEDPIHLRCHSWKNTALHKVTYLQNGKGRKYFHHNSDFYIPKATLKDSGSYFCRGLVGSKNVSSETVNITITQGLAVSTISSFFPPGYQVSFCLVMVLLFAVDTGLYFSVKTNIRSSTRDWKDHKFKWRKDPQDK
Procedure: (§3) In order to evaluate the binding activity of the chimeric mAbs to human CD16A expressed on cells, cell-based binding assay was employed as followed. […] The antibody dilutions were incubated with 1×10⁵ indicated cells in the 96-well microplate for one hour at 4° C. The antibodies binding to the antigen on the cell surface were detected with PE fluorophore-conjugated anti-human IgG Fc secondary antibodies (ThermoFisher scientific, Cat. No. 12-4998-82) at a dilution rate of 1:1000. Cells were analyzed by flow cytometer LSRFortessa Cell Analyzer (BD Biosciences). Data were analyzed with Flowjo 10.0 software. The graph and statistics analysis were generated with four-parameter nonlinear regression curve fit in Graphpad Prism 9 software.
(§4) CHO-K1 cells stably expressing cynomolgus CD16 were used in the following test.

[3] = molecular target: T5, human CD16A-158F expressed on CHO-K1 cells (human, UniProt P08637 17-254); assay: flow cytometry on antigen-expressing CHO-K1 cells
T5 construct: whole, on cells
T5 sequence (P08637 17-254): as the sequence (P08637 17-254 F176V) above, with V160F counted along it
Procedure: as §3, §4

[4] = molecular target: T6, cynomolgus CD16 expressed on CHO-K1 cells (cynomolgus, UniProt Q8SPW2 17-254); assay: flow cytometry on antigen-expressing CHO-K1 cells
T6 construct: whole, on cells; also called cyno CD16; CHO-K1-cynoCD16
T6 sequence (Q8SPW2 17-254): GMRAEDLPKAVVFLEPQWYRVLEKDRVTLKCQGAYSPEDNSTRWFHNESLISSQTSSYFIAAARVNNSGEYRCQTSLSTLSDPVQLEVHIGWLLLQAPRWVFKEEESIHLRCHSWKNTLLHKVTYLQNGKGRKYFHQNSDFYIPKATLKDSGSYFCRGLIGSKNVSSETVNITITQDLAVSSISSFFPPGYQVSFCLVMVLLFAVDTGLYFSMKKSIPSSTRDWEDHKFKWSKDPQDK
Procedure: as §3, §4

[5] = molecular target: T7, human CD16B-NA1 ECD his tag protein (human, UniProt O75015 17-200); assay: ELISA, hCD16B-NA1-his coated at 2 ug/mL, OD450
T7 construct: extracellular domain; Bought protein; also called hCD16B-NA1-his; hCD16B-NA1 protein
T7 sequence (O75015 other isoform, or with tags, fused parts or gaps limits assumed): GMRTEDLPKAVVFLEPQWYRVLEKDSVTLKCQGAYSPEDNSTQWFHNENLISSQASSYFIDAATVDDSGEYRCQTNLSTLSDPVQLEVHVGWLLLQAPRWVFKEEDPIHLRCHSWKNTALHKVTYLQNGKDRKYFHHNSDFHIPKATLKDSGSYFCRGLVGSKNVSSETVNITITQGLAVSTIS
Procedure: as §1
In order to determine the binding ability of the chimeric Abs to human CD16B protein, ELISA binding assay was performed as previously described. Three spliced isoforms of CD16B including human CD16B-NA1 ECD his tag protein (hCD16B-NA1-his, Acro Bio, Cat: No. CDB-H5227), human CD16B-NA2 ECD his tag protein (hCD16B-NA2-his, Acro Bio, Cat: No. CDB-H82Ea) and human CD16B-SH-his protein, were used as the coating antigens at 2 μg/mL.

[6] = molecular target: T8, human CD32B expressed on CHO-K1 cells (human, UniProt P31994 43-310); assay: flow cytometry, CHO-K1-hCD32B cells, geometric mean
T8 construct: whole, on cells; also called hCD32B
T8 sequence (looked up): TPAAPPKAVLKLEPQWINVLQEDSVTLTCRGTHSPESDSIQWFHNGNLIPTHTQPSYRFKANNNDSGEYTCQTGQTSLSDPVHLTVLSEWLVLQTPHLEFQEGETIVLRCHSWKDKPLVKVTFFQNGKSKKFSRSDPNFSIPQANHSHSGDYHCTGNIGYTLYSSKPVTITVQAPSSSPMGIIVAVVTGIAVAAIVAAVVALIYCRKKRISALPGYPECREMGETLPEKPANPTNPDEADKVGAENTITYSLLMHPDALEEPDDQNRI
Procedure: as §3
(§5) To exclude the non-specific binding of the CD16A chimeric antibody to human CD16B and CD32B expressed on cells, cell-based binding assay was performed as described above. Firstly, CHO-K1 cells were stably transferred with one human CD16B spliced isoform hCD16B-NA1 and human CD32B. Then, the cells were incubated with the indicated concentrations of CD16A chimeric antibodies.

[7] = molecular target: T9, human CD16B-NA1 expressed on CHO-K1 cells (human, UniProt O75015 17-200); assay: flow cytometry, CHO-K1-hCD16B-NA1 cells, geometric mean
T9 construct: whole, on cells; also called hCD16B-NA1; CHO-K1-hCD16B-NA1
T9 sequence (O75015 other isoform, or with tags, fused parts or gaps): as the sequence (O75015 other isoform, or with tags, fused parts or gaps limits assumed) above
Procedure: as §3, §5

[8] = molecular target: T5, human CD16A-158F expressed on CHO-K1 …; assay: flow cytometry, CHO-K1-hCD16A-158F cells, geometric mean
Procedure: as §3
The assay was performed following the protocol described above.

[9] = molecular target: T5, human CD16A-158F expressed on CHO-K1 …; assay: as above; remark: listed apart in the source
[10] = molecular target: T5, human CD16A-158F expressed on CHO-K1 …; assay: flow cytometry, CHO-K1-hCD16A-158F cells, Alexa Fluor 647 anti-human IgG Fc, geometric mean
Procedure: as §3
The assay was performed following the protocol described above. The antibodies binding to the antigen on the cell surface were detected with Alexa Fluor® 647 AffiniPure™ F(ab′)₂ fragment goat anti-human IgG Fcγ fragment specific secondary antibody (Jackson Immuno Research, Cat. No. 109-606-098) at a dilution rate of 1:2000.

Binder	EC50 [1] [nM]	EC50 (hCD16A-158V-his protein) [nM]	EC50 (hCD16A-158F-his protein) [nM]	EC50 [2] [nM]	EC50 [3] [nM]	EC50 [4] [nM]	binding result [5]	binding result [6]	binding result [7]	EC50 (read off the curve) [8] [nM]	EC50 (read off the curve) [9] [nM]	EC50 (read off the curve) [10] [nM]
B1	0.73	0.12	0.32	0.61	0.57	1.74	no binding (tested: 20 nM)	no binding (tested: 100 nM)	no binding (tested: 100 nM)	~0.4	~0.5	~0.4
B2	0.68	0.1	0.33	0.36	0.4	1.74	no binding (tested: 20 nM)	no binding (tested: 100 nM)	no binding (tested: 100 nM)	~0.4	~0.5	~0.4
